Assay results: PMC9482650, “Quantitative fragmentomics allow affinity mapping of interactomes” (Nature Communications, 2022)

Columns and labels:
Experiment in all cases: holdup assay
Set-up in all cases: key: below the threshold = too weak to quantify, mostly under pKd 3.1 to 4
[1] = molecular target: Inadl_1, Q8NI35
[2] = molecular target: T1, GRIP1_7, Q9Y3R0
T1 sequence (Q9Y3R0 999-1096, limits assumed, looked up): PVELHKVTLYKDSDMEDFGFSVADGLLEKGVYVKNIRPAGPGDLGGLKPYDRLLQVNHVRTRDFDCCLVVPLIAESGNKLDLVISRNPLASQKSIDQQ

[3] = molecular target: T2, APBA1_2, Q02410
T2 sequence (Q02410 742-832, limits assumed, looked up): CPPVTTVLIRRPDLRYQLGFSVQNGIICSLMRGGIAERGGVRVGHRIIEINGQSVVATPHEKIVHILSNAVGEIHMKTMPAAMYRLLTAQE

[4] = molecular target: PARD3_3, Q8TEW0
Sequence of PARD3_3, Q8TEW0 (Q8TEW0 582-685): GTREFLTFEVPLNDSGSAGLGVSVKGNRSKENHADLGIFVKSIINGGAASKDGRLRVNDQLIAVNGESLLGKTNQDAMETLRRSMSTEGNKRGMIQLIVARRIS

[5] = molecular target: T3, MPP7, Q5T2T1
T3 sequence (Q5T2T1 134-230, limits assumed, looked up): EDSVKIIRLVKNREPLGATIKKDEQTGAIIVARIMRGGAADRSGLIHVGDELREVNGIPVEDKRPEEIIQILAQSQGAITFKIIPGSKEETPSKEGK

[6] = molecular target: T4, SNTB1, Q13884
T4 sequence (Q13884 107-205, limits assumed, looked up): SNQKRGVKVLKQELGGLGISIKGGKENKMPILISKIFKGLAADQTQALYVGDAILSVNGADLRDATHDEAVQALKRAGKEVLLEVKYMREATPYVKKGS

[7] = molecular target: GIPC2, Q8TF65
Sequence of GIPC2, Q8TF65 (Q8TF65 112-203): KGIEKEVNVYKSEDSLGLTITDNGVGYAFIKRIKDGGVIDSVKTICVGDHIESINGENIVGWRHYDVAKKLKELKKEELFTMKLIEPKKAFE

[8] = molecular target: T5, SYNJ2BP, P57105
T5 sequence (P57105 8-110, limits assumed, looked up): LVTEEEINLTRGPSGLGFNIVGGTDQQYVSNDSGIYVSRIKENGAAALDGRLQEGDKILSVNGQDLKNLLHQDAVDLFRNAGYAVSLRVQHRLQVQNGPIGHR

[9] = molecular target: NHERF4_4, Q86UT5
Sequence of NHERF4_4, Q86UT5 (Q86UT5 464-550): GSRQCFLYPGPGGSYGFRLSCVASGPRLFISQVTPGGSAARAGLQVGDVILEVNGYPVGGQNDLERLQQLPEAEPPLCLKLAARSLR

[10] = molecular target: DLG2_2, Q15700
Sequence of DLG2_2, Q15700 (Q15700 189-283): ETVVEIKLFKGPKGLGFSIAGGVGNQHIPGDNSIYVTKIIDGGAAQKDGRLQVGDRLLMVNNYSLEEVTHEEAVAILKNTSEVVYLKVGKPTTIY

[11] = molecular target: T6, SHANK1, Q9Y566
T6 sequence (Q9Y566 658-767, limits assumed, looked up): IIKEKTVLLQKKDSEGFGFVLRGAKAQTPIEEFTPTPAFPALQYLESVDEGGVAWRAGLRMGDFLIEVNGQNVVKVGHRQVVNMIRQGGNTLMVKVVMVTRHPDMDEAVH

[12] = molecular target: T7, MPDZ_10, O75970
T7 sequence (O75970 1624-1722, limits assumed, looked up): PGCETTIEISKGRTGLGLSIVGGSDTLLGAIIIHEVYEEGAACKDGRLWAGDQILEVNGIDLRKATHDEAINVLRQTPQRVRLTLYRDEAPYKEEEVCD

[13] = molecular target: T8, GRIP1_3, Q9Y3R0
T8 sequence (Q9Y3R0 247-346, limits assumed, looked up): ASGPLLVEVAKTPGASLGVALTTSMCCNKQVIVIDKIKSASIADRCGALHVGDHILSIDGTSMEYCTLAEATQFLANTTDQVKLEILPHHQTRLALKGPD

[14] = molecular target: T9, TX1BP3, O14907
T9 sequence (O14907 10-122, limits assumed, looked up): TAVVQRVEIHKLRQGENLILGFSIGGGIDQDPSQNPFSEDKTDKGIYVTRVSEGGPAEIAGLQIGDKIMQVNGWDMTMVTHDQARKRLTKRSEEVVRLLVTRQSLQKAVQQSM

[15] = molecular target: T10, APBA1_1, Q02410
T10 sequence (Q02410 651-752, limits assumed, looked up): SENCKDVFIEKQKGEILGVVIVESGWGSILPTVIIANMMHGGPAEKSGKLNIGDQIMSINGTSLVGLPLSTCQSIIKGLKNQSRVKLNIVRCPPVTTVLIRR

[16] = molecular target: MAGI3_2, Q5TCQ9
Sequence of MAGI3_2, Q5TCQ9 (Q5TCQ9 398-503): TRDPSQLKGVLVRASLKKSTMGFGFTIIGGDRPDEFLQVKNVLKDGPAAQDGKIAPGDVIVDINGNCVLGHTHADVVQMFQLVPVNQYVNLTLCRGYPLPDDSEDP

[17] = molecular target: FRMPD2_1, Q68DX3
Sequence of FRMPD2_1, Q68DX3 (Q68DX3 770-861): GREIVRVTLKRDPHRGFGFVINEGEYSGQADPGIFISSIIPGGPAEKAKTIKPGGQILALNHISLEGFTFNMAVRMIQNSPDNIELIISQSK

[18] = molecular target: GRID2IP_1, A4D2P6
Sequence of GRID2IP_1, A4D2P6 (A4D2P6 1-87): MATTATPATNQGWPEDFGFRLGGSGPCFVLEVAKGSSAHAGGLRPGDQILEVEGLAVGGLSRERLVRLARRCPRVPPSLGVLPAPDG

[19] = molecular target: MAST1, Q9Y2H9
Sequence of MAST1, Q9Y2H9 (Q9Y2H9 962-1065): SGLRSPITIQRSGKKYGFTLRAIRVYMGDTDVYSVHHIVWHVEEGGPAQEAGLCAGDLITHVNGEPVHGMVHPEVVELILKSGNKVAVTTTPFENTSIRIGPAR

[20] = molecular target: T11, LNX2_3, Q8N448
T11 sequence (Q8N448 463-564, limits assumed, looked up): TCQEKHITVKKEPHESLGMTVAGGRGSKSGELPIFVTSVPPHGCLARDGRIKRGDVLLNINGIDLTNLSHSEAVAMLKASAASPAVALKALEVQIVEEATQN

[21] = molecular target: GRID2IP_2, A4D2P6
Sequence of GRID2IP_2, A4D2P6 (A4D2P6 272-370): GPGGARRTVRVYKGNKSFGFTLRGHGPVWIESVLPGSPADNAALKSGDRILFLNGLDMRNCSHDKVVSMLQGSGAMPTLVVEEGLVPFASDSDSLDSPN

[22] = molecular target: T12, HTRA3, P83110
T12 sequence (P83110 354-453, limits assumed, looked up): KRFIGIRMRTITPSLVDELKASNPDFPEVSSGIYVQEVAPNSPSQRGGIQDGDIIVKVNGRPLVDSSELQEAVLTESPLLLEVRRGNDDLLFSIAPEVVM

[23] = molecular target: T13, PDZD7_3, Q9H5P4
T13 sequence (Q9H5P4 857-944, limits assumed, looked up): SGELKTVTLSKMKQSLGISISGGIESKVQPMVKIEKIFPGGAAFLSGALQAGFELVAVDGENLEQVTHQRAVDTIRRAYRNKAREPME

[24] = plain residues with an end cap or a label only (N-terminal biotin on a linker: ado-ado)
[25] = modified: phospho on S at position -3 from the C-terminal residue

Sequence of Inadl_1, Q8NI35 (Q8NI35 113-229): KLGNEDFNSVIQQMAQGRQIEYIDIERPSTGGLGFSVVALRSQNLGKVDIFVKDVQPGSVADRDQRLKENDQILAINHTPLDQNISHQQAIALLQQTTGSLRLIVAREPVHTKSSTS

In the case of REVVMRVTTV [MARCHF9, Q86YJ5], the pKd [1, 24] is reported as “below the threshold”, the pKd [2, 24] is reported as “below the threshold” and the pKd [3, 24] is reported as 3.77. For the same binder, the pKd [4, 24] was “below the threshold”, the pKd [5, 24] was “below the threshold” and the pKd [6, 24] was 5.37. The pKd [7, 24] was “below the threshold”, the pKd [8, 24] was 4.82 and the pKd [9, 24] was “below the threshold”. For the same binder, the pKd [10, 24] was 5.2, the pKd [11, 24] was “below the threshold” and the pKd [12, 24] was 4.4. The pKd [13, 24] was “below the threshold”, the pKd [14, 24] was 4.61 and the pKd [15, 24] was “below the threshold”. The pKd [16, 24] was 5.16, the pKd [17, 24] was “below the threshold” and the pKd [18, 24] was “below the threshold”. For the same binder, the pKd [19, 24] was 4.65, the pKd [20, 24] was “below the threshold” and the pKd [21, 24] was 4.13. It also gave a pKd [22, 24] of 3.64 and a pKd [23, 24] of 5.24.

In the case of WRSKRTDTLL [RAMP3, O60896], the pKd [1, 24] is reported as “below the threshold”, the pKd [2, 24] is reported as “below the threshold” and the pKd [3, 24] is reported as “below the threshold”. The pKd [4, 24] was 3.48, the pKd [5, 24] was “below the threshold” and the pKd [6, 24] was “below the threshold”. For the same binder, the pKd [7, 24] was “below the threshold”, the pKd [8, 24] was 3.84 and the pKd [9, 24] was “below the threshold”. The pKd [10, 24] was 3.51, the pKd [11, 24] was “below the threshold” and the pKd [12, 24] was “below the threshold”. For the same binder, the pKd [13, 24] was “below the threshold”, the pKd [14, 24] was 4.13 and the pKd [15, 24] was “below the threshold”. The pKd [16, 24] was 4.37, the pKd [17, 24] was “below the threshold” and the pKd [18, 24] was “below the threshold”. The pKd [19, 24] was 3.84, the pKd [20, 24] was “below the threshold” and the pKd [21, 24] was “below the threshold”. For the same binder, the pKd [22, 24] was “below the threshold” and the pKd [23, 24] was 3.99.

In the case of VISERNSTTV [C3AR1, Q16581], the pKd [1, 24] is reported as “below the threshold”, the pKd [2, 24] is reported as “below the threshold” and the pKd [3, 24] is reported as “below the threshold”. The pKd [4, 24] was “below the threshold”, the pKd [5, 24] was “below the threshold” and the pKd [6, 24] was 3.77. For the same binder, the pKd [7, 24] was “below the threshold”, the pKd [8, 24] was 4.68 and the pKd [9, 24] was “below the threshold”. The pKd [10, 24] was 4.49, the pKd [11, 24] was 3.49 and the pKd [12, 24] was “below the threshold”. The pKd [13, 24] was “below the threshold”, the pKd [14, 24] was “below the threshold” and the pKd [15, 24] was “below the threshold”. For the same binder, the pKd [16, 24] was 4.83, the pKd [17, 24] was “below the threshold” and the pKd [18, 24] was “below the threshold”. The pKd [19, 24] was 3.74, the pKd [20, 24] was “below the threshold” and the pKd [21, 24] was 3.66. For the same binder, the pKd [22, 24] was “below the threshold” and the pKd [23, 24] was 4.41.

PDGEMMEVLI [AMOTL1, Q8IY63] was tested, and the pKd [1, 24] was “below the threshold”, the pKd [2, 24] was “below the threshold” and the pKd [3, 24] was “below the threshold”. The pKd [4, 24] was 5.29, the pKd [5, 24] was 4.24 and the pKd [6, 24] was “below the threshold”. For the same binder, the pKd [7, 24] was “below the threshold”, the pKd [8, 24] was “below the threshold” and the pKd [9, 24] was “below the threshold”. The pKd [10, 24] was “below the threshold”, the pKd [11, 24] was “below the threshold” and the pKd [12, 24] was “below the threshold”. For the same binder, the pKd [13, 24] was “below the threshold”, the pKd [14, 24] was “below the threshold” and the pKd [15, 24] was “below the threshold”. For the same binder, the pKd [16, 24] was “below the threshold”, the pKd [17, 24] was “below the threshold” and the pKd [18, 24] was “below the threshold”. The pKd [19, 24] was 3.71, the pKd [20, 24] was “below the threshold” and the pKd [21, 24] was “below the threshold”. For the same binder, the pKd [22, 24] was “below the threshold” and the pKd [23, 24] was “below the threshold”.

In the case of FEEEAEEEVA [TUBB4B, P68371], the pKd [1, 24] is reported as “below the threshold”, the pKd [2, 24] is reported as “below the threshold” and the pKd [3, 24] is reported as “below the threshold”. The pKd [4, 24] was “below the threshold”, the pKd [5, 24] was 3.59 and the pKd [6, 24] was “below the threshold”. For the same binder, the pKd [7, 24] was “below the threshold”, the pKd [8, 24] was “below the threshold” and the pKd [9, 24] was “below the threshold”. For the same binder, the pKd [10, 24] was “below the threshold”, the pKd [11, 24] was “below the threshold” and the pKd [12, 24] was “below the threshold”. For the same binder, the pKd [13, 24] was “below the threshold”, the pKd [14, 24] was 3.8 and the pKd [15, 24] was “below the threshold”. For the same binder, the pKd [16, 24] was “below the threshold”, the pKd [17, 24] was “below the threshold” and the pKd [18, 24] was “below the threshold”. The pKd [19, 24] was “below the threshold”, the pKd [20, 24] was “below the threshold” and the pKd [21, 24] was “below the threshold”. The pKd [22, 24] was “below the threshold” and the pKd [23, 24] was “below the threshold”.

For RRVRKLPSTTL [RPS6KA1_-3P, Q15418], the pKd [1, 25] was 3.66, the pKd [2, 25] was 3.68 and the pKd [3, 25] was “below the threshold”. The pKd [4, 25] was 3.76, the pKd [5, 25] was “below the threshold” and the pKd [6, 25] was 4.39. For the same binder, the pKd [7, 25] was “below the threshold”, the pKd [8, 25] was 4.48 and the pKd [9, 25] was “below the threshold”. For the same binder, the pKd [10, 25] was “below the threshold”, the pKd [11, 25] was “below the threshold” and the pKd [12, 25] was “below the threshold”. The pKd [13, 25] was “below the threshold”, the pKd [14, 25] was “below the threshold” and the pKd [15, 25] was “below the threshold”. The pKd [16, 25] was 4.1, the pKd [17, 25] was “below the threshold” and the pKd [18, 25] was “below the threshold”. For the same binder, the pKd [19, 25] was “below the threshold”, the pKd [20, 25] was “below the threshold” and the pKd [21, 25] was “below the threshold”. For the same binder, the pKd [22, 25] was “below the threshold” and the pKd [23, 25] was 3.72.
